In paper PMC5123055:

Experiments:
[1] = biological target: ribosome (S. cerevisiae); assay: quantitative ribosome binding assay (ribosomes isolated from cell extract, immunoblot with αmyc); details: ribosomes isolated under low-salt conditions; parent: 45.4
[2] = biological target: ribosome (S. cerevisiae) (S. cerevisiae (endogenous in yeast extract)); assay: co-sedimentation; ribosome binding assay: cell extract (cycloheximide) spun through a low-salt sucrose cushion (25% sucrose, 20 mM Hepes/KOH pH 7.4, 120 mM potassium acetate, 2 mM magnesium acetate), 400,000 g, 4 °C, 25 min; immunoblot of supernatant and ribosomal pellet; strains: wild type, Δzuo1Δssz1, RAC-H128Q, Δssb1Δssb2 with Ssb1 variants

Substance | response (% of total mycSsb1) [1] | ribosome-binding, percent of the mycSsb1 control [2] [%]
N-terminally myc-tagged Ssb1 (mycSsb1) (from UniProt P11484) K567E; R568E; K603D; R604D | 3 | 
N-terminally myc-tagged Ssb1 (mycSsb1) (from UniProt P11484) K567E; R568E; R596D; K597D; K603D; R604D | 1.9 | 
mycSsb1 LBC (K567E/R568E) (from UniProt P11484 1-613) (natural protein) |  | < 50

The remaining lines, values ahead:

response (% of total mycSsb1) [1] | ribosome-binding, percent of the mycSsb1 control [2] [%] | Substance
 | < 50 | mycSsb1 D1 (R596D/K597D) (from UniProt P11484 1-613) (natural protein)
 | < 50 | mycSsb1 D2 (K603D/R604D) (from UniProt P11484 1-613) (natural protein)
